Experiments:
human insulin receptor [1] = molecular target: T1, human insulin receptor (human, UniProt P06213 28-1382); assay: FACS, serum-starved CHO-K1 cells expressing human INSR, no insulin
T1 construct: whole, on cells; Uncomplexed receptor on serum-starved cells (CHOK1 transfectants or IM-9); also called hINSR; INSR
Method: (§1) Twenty five microliter aliquots of cells were plated into 96 well plates, mixed with 25 ul of antibody or PPE and incubated on ice for 1 h.
(§2) The cells were then washed once with FACS buffer and the binding of the antibody was detected by the addition of 25 ul of an appropriate fluorochrome-conjugated secondary antibody. […] After a final 15 min incubation on ice the cells were washed and the pellets resuspended in FACS buffer. The cells were analyzed on a FACSCAN™ (Becton-Dickinson, Milipitas, Calif.) and the data analyzed in both FLOWJO™ (Treestar, Ashland, Oreg.) and Microsoft Excel™.

mouse insulin receptor [2] = molecular target: T2, mouse insulin receptor (mouse, UniProt P15208 28-1372); assay: FACS, serum-starved CHO-K1 cells expressing mouse INSR, no insulin
T2 construct: whole, on cells; also called muINSR; mINSR

[3] = molecular target: T3, human insulin receptor complexed with human insulin (human, UniProt P06213 28-1382; P01308 25-54; P01308 90-110); assay: FACS, serum-starved CHO-K1 cells expressing human INSR, with insulin
T3 construct: whole, on cells;mature; also called hINSR-hINS complex; INS/INSR complex
Method: as §1, §2

[4] = molecular target: T4, mouse insulin receptor complexed with human insulin (mouse; human, UniProt P15208 28-1372; P01308 25-54; P01308 90-110); assay: FACS, serum-starved CHO-K1 cells expressing mouse INSR, with insulin
T4 construct: whole, on cells;mature; also called muINSR/hINS complex
Method: as §1, §2

[5] = molecular target: T3, human insulin receptor complexed with …; assay: FACS, CHO-K1 human INSR cells, signal with insulin divided by signal without insulin
[6] = molecular target: T4, mouse insulin receptor complexed with …; assay: FACS, CHO-K1 mouse INSR cells, signal with insulin divided by signal without insulin
Method: as §1, §2

human insulin receptor [7] = molecular target: T1, human insulin receptor; assay: FACS, serum-starved CHO-K1 cells expressing human INSR, no insulin [cont'd]
Method: as §1, §2

mouse insulin receptor [8] = molecular target: T2, mouse insulin receptor; assay: FACS, serum-starved CHO-K1 cells expressing mouse INSR, no insulin [cont'd]
Method: as §1, §2

[9] = molecular target: T4, mouse insulin receptor complexed with …; assay: FACS, serum-starved CHO-K1 cells expressing mouse INSR, with insulin [cont'd]
Method: as §1, §2

[10] = molecular target: T4, mouse insulin receptor complexed with …; assay: FACS, CHO-K1 mouse INSR cells, signal with insulin divided by signal without insulin [cont'd]
[11] = molecular target: T3, human insulin receptor complexed with …; assay: FACS, serum-starved CHO-K1 cells expressing human INSR, with insulin [cont'd]
Method: as §1, §2

[12] = molecular target: T3, human insulin receptor complexed with …; assay: FACS, CHO-K1 human INSR cells, signal with insulin divided by signal without insulin [cont'd]
Method: as §1, §2

Binder	FACS area under log transformed data MFI (human insulin receptor [1])	FACS area under log transformed data MFI (mouse insulin receptor [2])	FACS area under log transformed data MFI [3]	FACS area under log transformed data MFI [4]	FACS area under log transformed data MFI ratio (+insulin/-insulin) [5]	FACS area under log transformed data MFI ratio (+insulin/-insulin) [6]	FACS area under log transformed data MFI (human insulin receptor [7])	FACS area under log transformed data MFI (mouse insulin receptor [8])	FACS area under log transformed data MFI [9]	FACS area under log transformed data MFI ratio (+insulin/-insulin) [10]	FACS area under log transformed data MFI [11]	FACS area under log transformed data MFI ratio (+insulin/-insulin) [12]
Ab055 (antibody, IgG2, V domains shown, also called XPA.015.198) VH: QVQLVQSGAEVKKPGSSVKVSCKASGGTFSSYAISWVRQAPGQGLEWMGGIIPIFGTANYAQKFQGRVTITADESTSTAYMELSSLRSEDTAVYYCARGQGWLRFYGMDVWGQGTTVTVSS VL: SYELTQLPSVSVSPGQTARITCSGDALPNKYAYWYQQKSGQAPVLVIYEDTRRPSEIPERFSASSSGTMATLTISGAQVEDEAEYYCYSTDSSGNERVFGGGTKLTVL	1190	1300	759	1050	0.64	0.81	–	–	–	–	–	–
Ab051 (antibody, IgG2, V domains shown, also called XPA.015.194) VH: QVQLVQSGAEVKKPGSSVKVSCKASGGTFSSYAISWVRQAPGQGLEWMGGIIPIFGTANYAQKFQGRVTITADESTSTAYMELSSLRSEDTAVYYCAGKLYSRDYWYFDLWGRGTLVTVSS VL: SSELTQDPAVSVALGQTVRITCQGNSLRSFYATWYQQKPGQAPVLVIYGKNIRPSGIPDRFSGSNSGDTASLTITGTQAEDEADYYCNSRDNNRNHLLFAGGTKVTVL	554	663	378	470	0.68	0.71	–	–	–	–	–	–
Ab068 (antibody, IgG2, V domains shown, also called XPA.015.217) VH: EVQLVQSGAEVKQPGSSVKVSCKASGGSFNSYTFSWVRQAPGQGLEWMGWISAYNGGTNYFANYALKFQGRVTMTTDTSTGTAYMELRSLRSDDTAVYYCARVRDSWSHEDYSYYYYMDVWGKGTTVTVSS VL: DVVMTQTPLSLSVTPGQPASISCKASQSLLYTNGDTYVSWYVQKPGQAPQLLFSDVSSRFFGVPDRFSASGSGTDFTLKISRVEAEDVGVYYCVQAMYLPLVFGQGTKVEIK	1420	803	1030	445	0.72	0.55	–	–	–	–	–	–
Ab066 (antibody, IgG2, V domains shown, also called XPA.015.215) VH: EVQLVQSGAEVKKPGSSVKVSCKASGGTFSSYAISWVRQAPGQGLEWMGGIIPIFGTANYAQKFQGRVTITADKSTSTAYMELSRLRSDDTAVYYCARDASYGGNSEGFDYWGQGTLVTVSS VL: SSELTQDPAVSVAVGQSVRITCQGDSLKNFYATWYQQRPGQAPLLVIFGKNNRPSGIPDRFSGSSSGNTASLTVTGAQADDEADYYCNSPDSSNKLVVFGGGTKLTVL	1560	1520	1160	1140	0.74	0.76	–	–	–	–	–	–
Ab074 (antibody, IgG2, V domains shown, also called XPA.015.230) VH: EVQLVQSGAEVKKPGESLKISCKGSGYSFTSYWIGWVRQMPGKGLEWMGIIYPGDSDTRYSPSFQGQVTISADKSISTAYLQWSSLKASDTAMYYCARWDAGYSPWGQGTLVTVSS VL: SSELTQDPAVSVALGQTVRITCQGDSLRSYYASWYQQKPGQAPVLVIYGKNNRPSGIPDRFSGSSSGNTASLTITGAQAEDEADYYCSSRDSSGDQWVFGGGTKLTVL	–	–	–	–	–	–	596	932	503	0.54	260	0.44
Ab067 (antibody, V domains shown, also called XPA.015.216) VH: EVQLVQSGAEVKKPGSSVKVSCKASGGTFSSYAISWVRQAPGQGLEWMGGIIPIFGTANYAQKFQGRVTITADESTSTAYMELSSLRSEDTAVYYCARASGDYDFWSGYYGAEYFQHWGQGTLVTVSS VL: not shown	1540	1280	1060	786	0.69	0.61	–	–	–	–	–	–
Ab058 (antibody, IgG2, V domains shown, also called XPA.015.202) VH: QLQLQQWGAGLLKPSETLSLTCAVYSGSFSGYYYSWIRQSPGRGLEWIGDISHTGSTDYNPSLKTRVTISVDTSKNQFSLNLNSVTAADTAVYYCARDAPKGGSGLYLFDYWGQGTLVTVSS VL: QSVLTQPPSVSGAPGQRVTISCTGSRSNIGADHDVHWYQQIPGRAPKLLIYGNSNRPSGVPDRFSGSRSGTSASLAITGLQAEDEADYYCQSYDNSLSGSVFGGGTKLTVL	1410	812	370	388	0.26	0.48	–	–	–	–	–	–

Next, values leading:

FACS area under log transformed data MFI (human insulin receptor [1])	FACS area under log transformed data MFI (mouse insulin receptor [2])	FACS area under log transformed data MFI [3]	FACS area under log transformed data MFI [4]	FACS area under log transformed data MFI ratio (+insulin/-insulin) [5]	FACS area under log transformed data MFI ratio (+insulin/-insulin) [6]	FACS area under log transformed data MFI (human insulin receptor [7])	FACS area under log transformed data MFI (mouse insulin receptor [8])	FACS area under log transformed data MFI [9]	FACS area under log transformed data MFI ratio (+insulin/-insulin) [10]	FACS area under log transformed data MFI [11]	FACS area under log transformed data MFI ratio (+insulin/-insulin) [12]	Binder
–	–	–	–	–	–	226	508	267	0.53	–	–	Ab072 (antibody, IgG2, V domains shown, also called XPA.015.228) VH: QMQLVQSGAEVKKPGESLKISCKGSGYSFTGYWIGWVRQMPGKGLEWMGIIYPGDSDTRYSPSFQGQVTISADKSISTAYLQWSSLKVSDTAMYYCGRISTPYAFDIWGQGTMVTVSS VL: SYVLTQPPSASGTPGQRVTISCSGSNSNIGSNFVTWYQQLPGAAPKLLIYTNSQRPSGVPDRFSGSRSGTSASLAISGLQSEDEADYFCAAWDDSLNGPVFGGGTQLTVL
–	–	–	–	–	–	729	307	321	1.05	341	0.47	Ab073 (antibody, IgG2, V domains shown, also called XPA.015.229) VH: QVQLQESGPGLVKPSGTLSLTCAVSGGSISSSNWWSWVRQPPGKGLEWIGEIYHSGSTNYNPSLKSRVTISVDKSKNQFSLKLSSVTAADTAVYYCARVGAAAAWFDPWGQGTLVTVSS VL: QSVLTQPPSVSAAAGQKVTISCSGSSSNIGNNYVTWYQHVPGTAPKLLIFDNDKRPSGIPDRFSGSKSGTSATLAITGLQTGDEADYYCGTWDSSLNPLFGGSTQLTVL
–	–	–	–	–	–	490	818	518	0.63	–	–	Ab071 (antibody, IgG2, V domains shown, also called XPA.015.227) VH: EVQLVQSGAEVKKPGESLKISCKGSGYSFTSYWIGWVRQMPGKGLEWMGIIYPGDSDTRYSPSFQGQVTISADKSISTAYLQWSSLKASDTAMYYCARWDAGYSPWGQGTLVTVSS VL: SSELTQDPAVSVALGQTVRITCQGDSLRSYYASWYQQKPGQAPVLVFYGKNNRPSGIPGRFSGSKSGNTASLTITGAQAEDEADYYCNSRDSSGNHWVFGGGTKLTVL
–	–	–	–	–	–	399	257	267	1.04	–	–	Ab082 (antibody, IgG2, V domains shown, also called XPA.015.248) VH: QMQLVQSGAEVKKPGESLKISCKGSGYSFTSYWIGWVRQMPGKGLEWMGIIYPGDSDTRYSPSFQGQVTISADKSISTAYLQWSSLKASDTAMYYCARWGPDAFDIWGQGTMVTVSS VL: EIVLTQSPDFQSVTPKETVTISCRASQNIGVSLHWYQQKPDQSPKVLIKYASQSLSGVPSRFSGTGSGTDFTLTIKSLEAEDAATYYCLQTSSLPWTFGQGTKVEIK
